Biological target: T1, human FcγRIIIa(F) (human, UniProt P08637 17-208, limits assumed)
T1 construct: also called FcgRIIIaF; FcγRIIIa allotype F158
Assay: SPR (Biacore), captured antibody, FcγR analyte; bound amount relative to GpH7-B3/GpL16-k0 x100;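 further: receptor response divided by the antibody amount captured on the chip before comparison with the reference antibody, measured at 25 °C in HBS-EP+ running buffer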
Procedure: Interaction between each modified antibody and Fcγ receptor prepared in the manner described above was analyzed using the Biacore T100 (GE Healthcare), Biacore T200 (GE Healthcare), Biacore A100 or Biacore 4000. HBS-EP+ (GE Healthcare) was used for the running buffer, and measurements were carried out at 25° C. The chips used were chips in which antigen peptides, Protein A (Thermo Scientific), Protein A/G (Thermo Scientific) or Protein L (ACTIGEN or BioVision) were immobilized on the Series S Sensor Chip CM5 (GE Healthcare) or Series S Sensor Chip CM4 (GE Healthcare) by amine coupling, or chips in which preliminarily biotinylated antigen peptides were allowed to interact and then immobilized on the Series S Sensor Chip SA (certified) (GE Healthcare). The target antibodies were captured on these sensor chips, Fcγ receptor diluted with the running buffer was allowed to interact, followed by measurement of the amount of bound antibody. The amounts bound were compared between antibodies. However, since the amount of Fcγ receptor bound depends on the amount of captured antibody, the values used for comparison were first corrected by dividing the amount of Fcγ receptor bound by the captured amount of each antibody. Through reaction with 10 mM glycine-HCl at pH 1.5, the sensor chips were regenerated by washing off antibody captured on the sensor chips and used repeatedly.
Binding strength was evaluated according to the following method based on the results of analyzing the interaction with each FcγR. […] That value was then further multiplied by 100, and the resulting value was used as an indicator of relative binding activity to each FcγR.

T1 sequence (P08637 other isoform, or with tags, fused parts or gaps limits assumed): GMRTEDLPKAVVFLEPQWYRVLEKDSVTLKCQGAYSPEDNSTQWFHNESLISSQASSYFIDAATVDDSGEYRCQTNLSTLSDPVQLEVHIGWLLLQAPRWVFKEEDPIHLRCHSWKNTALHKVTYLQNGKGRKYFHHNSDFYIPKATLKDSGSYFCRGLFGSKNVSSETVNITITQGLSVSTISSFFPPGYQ

| Binder | relative binding activity |
| --- | --- |
| GpH7-B3/GpL16-k0 with A327R introduced into GpH7-B3 (antibody, human IgG1, Anti-glypican-3 human IgG1; constant region B3 (G1d with K439E); Fc variant; also called B3 variant; copies: 2 + 2) heavy: not shown light: DIVMTQSPLSLPVTPGEPASISCQASESLVHSNRNTYLHWYLQKPGQSPQLLIYKVSNRFSGVPDRFSGSGSGTDFTLKISRVEAEDVGVYYCSQNTHVPPTFGQGTKVEIE | 1 % of GpH7-B3/GpL16-k0 |
| GpH7-B3/GpL16-k0 with A327P introduced into GpH7-B3 (antibody, human IgG1, Anti-glypican-3 human IgG1; constant region B3 (G1d with K439E); Fc variant; also called B3 variant; copies: 2 + 2) heavy: not shown light: DIVMTQSPLSLPVTPGEPASISCQASESLVHSNRNTYLHWYLQKPGQSPQLLIYKVSNRFSGVPDRFSGSGSGTDFTLKISRVEAEDVGVYYCSQNTHVPPTFGQGTKVEIE | 20 % of GpH7-B3/GpL16-k0 |
| GpH7-B3/GpL16-k0 with A327V introduced into GpH7-B3 (antibody, human IgG1, Anti-glypican-3 human IgG1; constant region B3 (G1d with K439E); Fc variant; also called B3 variant; copies: 2 + 2) heavy: not shown light: DIVMTQSPLSLPVTPGEPASISCQASESLVHSNRNTYLHWYLQKPGQSPQLLIYKVSNRFSGVPDRFSGSGSGTDFTLKISRVEAEDVGVYYCSQNTHVPPTFGQGTKVEIE | 18 % of GpH7-B3/GpL16-k0 |
| GpH7-B3/GpL16-k0 with A327S introduced into GpH7-B3 (antibody, human IgG1, Anti-glypican-3 human IgG1; constant region B3 (G1d with K439E); Fc variant; also called B3 variant; copies: 2 + 2) heavy: not shown light: DIVMTQSPLSLPVTPGEPASISCQASESLVHSNRNTYLHWYLQKPGQSPQLLIYKVSNRFSGVPDRFSGSGSGTDFTLKISRVEAEDVGVYYCSQNTHVPPTFGQGTKVEIE | 42 % of GpH7-B3/GpL16-k0 |
| GpH7-B3/GpL16-k0 with A327Q introduced into GpH7-B3 (antibody, human IgG1, Anti-glypican-3 human IgG1; constant region B3 (G1d with K439E); Fc variant; also called B3 variant; copies: 2 + 2) heavy: not shown light: DIVMTQSPLSLPVTPGEPASISCQASESLVHSNRNTYLHWYLQKPGQSPQLLIYKVSNRFSGVPDRFSGSGSGTDFTLKISRVEAEDVGVYYCSQNTHVPPTFGQGTKVEIE | 18 % of GpH7-B3/GpL16-k0 |
| GpH7-B3/GpL16-k0 with L328K introduced into GpH7-B3 (antibody, human IgG1, Anti-glypican-3 human IgG1; constant region B3 (G1d with K439E); Fc variant; also called B3 variant; copies: 2 + 2) heavy: not shown light: DIVMTQSPLSLPVTPGEPASISCQASESLVHSNRNTYLHWYLQKPGQSPQLLIYKVSNRFSGVPDRFSGSGSGTDFTLKISRVEAEDVGVYYCSQNTHVPPTFGQGTKVEIE | 0 % of GpH7-B3/GpL16-k0 |
| GpH7-B3/GpL16-k0 with L328N introduced into GpH7-B3 (antibody, human IgG1, Anti-glypican-3 human IgG1; constant region B3 (G1d with K439E); Fc variant; also called B3 variant; copies: 2 + 2) heavy: not shown light: DIVMTQSPLSLPVTPGEPASISCQASESLVHSNRNTYLHWYLQKPGQSPQLLIYKVSNRFSGVPDRFSGSGSGTDFTLKISRVEAEDVGVYYCSQNTHVPPTFGQGTKVEIE | 22 % of GpH7-B3/GpL16-k0 |
| GpH7-B3/GpL16-k0 with A327M introduced into GpH7-B3 (antibody, human IgG1, Anti-glypican-3 human IgG1; constant region B3 (G1d with K439E); Fc variant; also called B3 variant; copies: 2 + 2) heavy: not shown light: DIVMTQSPLSLPVTPGEPASISCQASESLVHSNRNTYLHWYLQKPGQSPQLLIYKVSNRFSGVPDRFSGSGSGTDFTLKISRVEAEDVGVYYCSQNTHVPPTFGQGTKVEIE | 24 % of GpH7-B3/GpL16-k0 |
| GpH7-B3/GpL16-k0 with L328H introduced into GpH7-B3 (antibody, human IgG1, Anti-glypican-3 human IgG1; constant region B3 (G1d with K439E); Fc variant; also called B3 variant; copies: 2 + 2) heavy: not shown light: DIVMTQSPLSLPVTPGEPASISCQASESLVHSNRNTYLHWYLQKPGQSPQLLIYKVSNRFSGVPDRFSGSGSGTDFTLKISRVEAEDVGVYYCSQNTHVPPTFGQGTKVEIE | 13 % of GpH7-B3/GpL16-k0 |
| GpH7-B3/GpL16-k0 with A327F introduced into GpH7-B3 (antibody, human IgG1, Anti-glypican-3 human IgG1; constant region B3 (G1d with K439E); Fc variant; also called B3 variant; copies: 2 + 2) heavy: not shown light: DIVMTQSPLSLPVTPGEPASISCQASESLVHSNRNTYLHWYLQKPGQSPQLLIYKVSNRFSGVPDRFSGSGSGTDFTLKISRVEAEDVGVYYCSQNTHVPPTFGQGTKVEIE | 16 % of GpH7-B3/GpL16-k0 |
| GpH7-B3/GpL16-k0 with A327K introduced into GpH7-B3 (antibody, human IgG1, Anti-glypican-3 human IgG1; constant region B3 (G1d with K439E); Fc variant; also called B3 variant; copies: 2 + 2) heavy: not shown light: DIVMTQSPLSLPVTPGEPASISCQASESLVHSNRNTYLHWYLQKPGQSPQLLIYKVSNRFSGVPDRFSGSGSGTDFTLKISRVEAEDVGVYYCSQNTHVPPTFGQGTKVEIE | 5 % of GpH7-B3/GpL16-k0 |
| GpH7-B3/GpL16-k0 with L328G introduced into GpH7-B3 (antibody, human IgG1, Anti-glypican-3 human IgG1; constant region B3 (G1d with K439E); Fc variant; also called B3 variant; copies: 2 + 2) heavy: not shown light: DIVMTQSPLSLPVTPGEPASISCQASESLVHSNRNTYLHWYLQKPGQSPQLLIYKVSNRFSGVPDRFSGSGSGTDFTLKISRVEAEDVGVYYCSQNTHVPPTFGQGTKVEIE | 8 % of GpH7-B3/GpL16-k0 |
| GpH7-B3/GpL16-k0 with A327Y introduced into GpH7-B3 (antibody, human IgG1, Anti-glypican-3 human IgG1; constant region B3 (G1d with K439E); Fc variant; also called B3 variant; copies: 2 + 2) heavy: not shown light: DIVMTQSPLSLPVTPGEPASISCQASESLVHSNRNTYLHWYLQKPGQSPQLLIYKVSNRFSGVPDRFSGSGSGTDFTLKISRVEAEDVGVYYCSQNTHVPPTFGQGTKVEIE | 13 % of GpH7-B3/GpL16-k0 |
| GpH7-B3/GpL16-k0 with A327H introduced into GpH7-B3 (antibody, human IgG1, Anti-glypican-3 human IgG1; constant region B3 (G1d with K439E); Fc variant; also called B3 variant; copies: 2 + 2) heavy: not shown light: DIVMTQSPLSLPVTPGEPASISCQASESLVHSNRNTYLHWYLQKPGQSPQLLIYKVSNRFSGVPDRFSGSGSGTDFTLKISRVEAEDVGVYYCSQNTHVPPTFGQGTKVEIE | 14 % of GpH7-B3/GpL16-k0 |
| GpH7-B3/GpL16-k0 with A327W introduced into GpH7-B3 (antibody, human IgG1, Anti-glypican-3 human IgG1; constant region B3 (G1d with K439E); Fc variant; also called B3 variant; copies: 2 + 2) heavy: not shown light: DIVMTQSPLSLPVTPGEPASISCQASESLVHSNRNTYLHWYLQKPGQSPQLLIYKVSNRFSGVPDRFSGSGSGTDFTLKISRVEAEDVGVYYCSQNTHVPPTFGQGTKVEIE | 17 % of GpH7-B3/GpL16-k0 |
| GpH7-B3/GpL16-k0 with A327L introduced into GpH7-B3 (antibody, human IgG1, Anti-glypican-3 human IgG1; constant region B3 (G1d with K439E); Fc variant; also called B3 variant; copies: 2 + 2) heavy: not shown light: DIVMTQSPLSLPVTPGEPASISCQASESLVHSNRNTYLHWYLQKPGQSPQLLIYKVSNRFSGVPDRFSGSGSGTDFTLKISRVEAEDVGVYYCSQNTHVPPTFGQGTKVEIE | 13 % of GpH7-B3/GpL16-k0 |
| GpH7-B3/GpL16-k0 with A327T introduced into GpH7-B3 (antibody, human IgG1, Anti-glypican-3 human IgG1; constant region B3 (G1d with K439E); Fc variant; also called B3 variant; copies: 2 + 2) heavy: not shown light: DIVMTQSPLSLPVTPGEPASISCQASESLVHSNRNTYLHWYLQKPGQSPQLLIYKVSNRFSGVPDRFSGSGSGTDFTLKISRVEAEDVGVYYCSQNTHVPPTFGQGTKVEIE | 10 % of GpH7-B3/GpL16-k0 |

Further lines, results first:

| relative binding activity | Binder |
| --- | --- |
| 1 % of GpH7-B3/GpL16-k0 | GpH7-B3/GpL16-k0 with N325I introduced into GpH7-B3 (antibody, human IgG1, Anti-glypican-3 human IgG1; constant region B3 (G1d with K439E); Fc variant; also called B3 variant; copies: 2 + 2) heavy: not shown light: DIVMTQSPLSLPVTPGEPASISCQASESLVHSNRNTYLHWYLQKPGQSPQLLIYKVSNRFSGVPDRFSGSGSGTDFTLKISRVEAEDVGVYYCSQNTHVPPTFGQGTKVEIE |
| -1 % of GpH7-B3/GpL16-k0 | GpH7-B3/GpL16-k0 with L328R introduced into GpH7-B3 (antibody, human IgG1, Anti-glypican-3 human IgG1; constant region B3 (G1d with K439E); Fc variant; also called B3 variant; copies: 2 + 2) heavy: not shown light: DIVMTQSPLSLPVTPGEPASISCQASESLVHSNRNTYLHWYLQKPGQSPQLLIYKVSNRFSGVPDRFSGSGSGTDFTLKISRVEAEDVGVYYCSQNTHVPPTFGQGTKVEIE |
| 6 % of GpH7-B3/GpL16-k0 | GpH7-B3/GpL16-k0 with N325A introduced into GpH7-B3 (antibody, human IgG1, Anti-glypican-3 human IgG1; constant region B3 (G1d with K439E); Fc variant; also called B3 variant; copies: 2 + 2) heavy: not shown light: DIVMTQSPLSLPVTPGEPASISCQASESLVHSNRNTYLHWYLQKPGQSPQLLIYKVSNRFSGVPDRFSGSGSGTDFTLKISRVEAEDVGVYYCSQNTHVPPTFGQGTKVEIE |
| 1 % of GpH7-B3/GpL16-k0 | GpH7-B3/GpL16-k0 with N325G introduced into GpH7-B3 (antibody, human IgG1, Anti-glypican-3 human IgG1; constant region B3 (G1d with K439E); Fc variant; also called B3 variant; copies: 2 + 2) heavy: not shown light: DIVMTQSPLSLPVTPGEPASISCQASESLVHSNRNTYLHWYLQKPGQSPQLLIYKVSNRFSGVPDRFSGSGSGTDFTLKISRVEAEDVGVYYCSQNTHVPPTFGQGTKVEIE |
| 37 % of GpH7-B3/GpL16-k0 | GpH7-B3/GpL16-k0 with N325H introduced into GpH7-B3 (antibody, human IgG1, Anti-glypican-3 human IgG1; constant region B3 (G1d with K439E); Fc variant; also called B3 variant; copies: 2 + 2) heavy: not shown light: DIVMTQSPLSLPVTPGEPASISCQASESLVHSNRNTYLHWYLQKPGQSPQLLIYKVSNRFSGVPDRFSGSGSGTDFTLKISRVEAEDVGVYYCSQNTHVPPTFGQGTKVEIE |
| -1 % of GpH7-B3/GpL16-k0 | GpH7-B3/GpL16-k0 with N325F introduced into GpH7-B3 (antibody, human IgG1, Anti-glypican-3 human IgG1; constant region B3 (G1d with K439E); Fc variant; also called B3 variant; copies: 2 + 2) heavy: not shown light: DIVMTQSPLSLPVTPGEPASISCQASESLVHSNRNTYLHWYLQKPGQSPQLLIYKVSNRFSGVPDRFSGSGSGTDFTLKISRVEAEDVGVYYCSQNTHVPPTFGQGTKVEIE |
| 3 % of GpH7-B3/GpL16-k0 | GpH7-B3/GpL16-k0 with L328P introduced into GpH7-B3 (antibody, human IgG1, Anti-glypican-3 human IgG1; constant region B3 (G1d with K439E); Fc variant; also called B3 variant; copies: 2 + 2) heavy: not shown light: DIVMTQSPLSLPVTPGEPASISCQASESLVHSNRNTYLHWYLQKPGQSPQLLIYKVSNRFSGVPDRFSGSGSGTDFTLKISRVEAEDVGVYYCSQNTHVPPTFGQGTKVEIE |
| -2 % of GpH7-B3/GpL16-k0 | GpH7-B3/GpL16-k0 with N325K introduced into GpH7-B3 (antibody, human IgG1, Anti-glypican-3 human IgG1; constant region B3 (G1d with K439E); Fc variant; also called B3 variant; copies: 2 + 2) heavy: not shown light: DIVMTQSPLSLPVTPGEPASISCQASESLVHSNRNTYLHWYLQKPGQSPQLLIYKVSNRFSGVPDRFSGSGSGTDFTLKISRVEAEDVGVYYCSQNTHVPPTFGQGTKVEIE |

From patent US20140105889A1 (published 2014)
